From patent US20240218339

What was measured:
[1] = test system: T1, MG31-1 (uncultivated microorganism (metagenomic)); test: cell_activity; settings: HEK cells
T1 sequence: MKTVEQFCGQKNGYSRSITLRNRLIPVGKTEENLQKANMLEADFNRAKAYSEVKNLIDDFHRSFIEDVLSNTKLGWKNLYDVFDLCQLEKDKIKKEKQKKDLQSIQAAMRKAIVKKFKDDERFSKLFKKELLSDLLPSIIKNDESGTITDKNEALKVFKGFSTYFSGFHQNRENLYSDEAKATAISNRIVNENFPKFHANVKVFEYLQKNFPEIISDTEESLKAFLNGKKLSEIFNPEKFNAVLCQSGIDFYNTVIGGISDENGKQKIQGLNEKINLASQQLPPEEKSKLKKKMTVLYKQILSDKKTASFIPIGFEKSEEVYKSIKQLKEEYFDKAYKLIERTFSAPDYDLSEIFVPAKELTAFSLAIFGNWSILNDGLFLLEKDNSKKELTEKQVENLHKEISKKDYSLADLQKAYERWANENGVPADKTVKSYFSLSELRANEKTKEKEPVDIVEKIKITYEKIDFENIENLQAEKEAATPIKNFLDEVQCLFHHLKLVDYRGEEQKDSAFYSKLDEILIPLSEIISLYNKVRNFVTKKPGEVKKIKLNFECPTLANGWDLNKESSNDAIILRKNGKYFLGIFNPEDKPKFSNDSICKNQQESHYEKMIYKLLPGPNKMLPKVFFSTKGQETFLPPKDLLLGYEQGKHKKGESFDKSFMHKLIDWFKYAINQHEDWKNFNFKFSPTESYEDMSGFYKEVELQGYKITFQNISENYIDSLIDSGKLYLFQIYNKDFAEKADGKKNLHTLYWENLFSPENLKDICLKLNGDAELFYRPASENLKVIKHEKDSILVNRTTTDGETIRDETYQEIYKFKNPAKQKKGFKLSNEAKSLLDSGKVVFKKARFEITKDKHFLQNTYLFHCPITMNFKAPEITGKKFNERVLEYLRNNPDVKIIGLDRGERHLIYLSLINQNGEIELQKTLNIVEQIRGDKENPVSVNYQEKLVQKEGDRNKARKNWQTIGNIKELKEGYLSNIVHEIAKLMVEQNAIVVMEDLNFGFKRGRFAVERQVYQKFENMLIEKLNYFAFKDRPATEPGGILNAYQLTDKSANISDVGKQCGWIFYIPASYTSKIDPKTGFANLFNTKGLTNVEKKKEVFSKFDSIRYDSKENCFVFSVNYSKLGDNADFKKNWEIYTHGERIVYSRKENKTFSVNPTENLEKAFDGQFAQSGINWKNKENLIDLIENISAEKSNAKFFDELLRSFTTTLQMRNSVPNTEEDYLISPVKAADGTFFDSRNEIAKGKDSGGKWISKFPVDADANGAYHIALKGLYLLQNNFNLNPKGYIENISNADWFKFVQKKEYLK

[2] = test system: T2, MG29-1 (uncultivated microorganism (metagenomic)); test: cell_activity
T2 sequence: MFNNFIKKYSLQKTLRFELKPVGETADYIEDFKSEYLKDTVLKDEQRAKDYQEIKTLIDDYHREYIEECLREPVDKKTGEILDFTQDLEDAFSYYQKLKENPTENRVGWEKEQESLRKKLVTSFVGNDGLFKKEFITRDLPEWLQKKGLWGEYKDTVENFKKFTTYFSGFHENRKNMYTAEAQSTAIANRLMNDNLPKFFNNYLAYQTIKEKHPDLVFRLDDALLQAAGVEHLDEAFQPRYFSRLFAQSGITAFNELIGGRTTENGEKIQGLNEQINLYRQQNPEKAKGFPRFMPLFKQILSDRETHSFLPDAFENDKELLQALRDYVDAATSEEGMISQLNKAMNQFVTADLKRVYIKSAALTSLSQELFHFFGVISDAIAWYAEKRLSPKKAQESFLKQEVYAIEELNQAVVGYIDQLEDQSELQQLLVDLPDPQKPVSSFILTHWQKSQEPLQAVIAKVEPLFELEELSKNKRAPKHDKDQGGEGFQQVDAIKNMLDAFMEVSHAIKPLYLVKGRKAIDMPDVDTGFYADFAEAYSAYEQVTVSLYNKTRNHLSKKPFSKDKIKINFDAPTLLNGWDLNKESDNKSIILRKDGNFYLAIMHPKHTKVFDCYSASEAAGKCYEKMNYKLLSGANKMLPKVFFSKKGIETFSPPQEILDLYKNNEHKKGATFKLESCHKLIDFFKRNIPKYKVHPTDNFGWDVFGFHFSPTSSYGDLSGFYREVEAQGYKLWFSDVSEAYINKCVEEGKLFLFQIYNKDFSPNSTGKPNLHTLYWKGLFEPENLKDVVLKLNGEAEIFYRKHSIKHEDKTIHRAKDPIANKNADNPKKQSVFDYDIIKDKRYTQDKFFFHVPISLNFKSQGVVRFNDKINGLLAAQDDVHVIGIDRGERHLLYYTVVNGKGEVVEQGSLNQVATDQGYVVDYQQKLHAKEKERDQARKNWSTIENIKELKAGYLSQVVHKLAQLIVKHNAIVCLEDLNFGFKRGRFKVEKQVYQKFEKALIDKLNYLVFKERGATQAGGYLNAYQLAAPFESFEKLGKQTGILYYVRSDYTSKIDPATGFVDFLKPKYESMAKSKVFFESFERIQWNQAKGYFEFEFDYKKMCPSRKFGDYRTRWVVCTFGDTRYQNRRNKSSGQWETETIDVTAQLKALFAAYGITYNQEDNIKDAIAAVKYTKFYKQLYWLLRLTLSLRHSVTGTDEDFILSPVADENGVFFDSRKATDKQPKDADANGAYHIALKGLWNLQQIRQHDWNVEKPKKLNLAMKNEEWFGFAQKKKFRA

## AAUUUCUACUAUUGUAGAUNCUUGGACCUUGUUUUGCUUACUGU / ACAAATTTTACTTGGACCTTGTTTTGCTTACTGT / ACAGTAAGCAAAACAAGGTCCAAGTAAAATTTGT
[1]; PAM TTTA, SD 0.75
  activity: -0.32 % NHEJ

## AAUUUCUACUAUUGUAGAUNGAAAGGGGGUGGGGGGAGUUUGCU / ATGGGCTTTGGAAAGGGGGTGGGGGGAGTTTGCT / AGCAAACTCCCCCCACCCCCTTTCCAAAGCCCAT [MG29-1 guide VEGFA target8 ; VEGFA target8]
[2]; PAM KTTG (TTTG), HEK293T plasmid transfection, SD 10.17
  activity: 30.1 % NHEJ

## AAUUUCUACUAUUGUAGAUNUGUGAGGGAGCACCGUUCUCUAGA / TACATAGTTGTGTGAGGGAGCACCGTTCTCTAGA / TCTAGAGAACGGTGCTCCCTCACACAACTATGTA
[2]; PAM KTTG (GTTG), HEK293T plasmid transfection, SD 1.57
  activity: 30.4 % NHEJ

## AAUUUCUACUAUUGUAGAUNGGAGGUCAGAAAUAGGGGGUCCAG / TAGCTGTTTGGGAGGTCAGAAATAGGGGGTCCAG / CTGGACCCCCTATTTCTGACCTCCCAAACAGCTA [MG31-1 guide VEGFA target7 ; VEGFA target7]
[1]; PAM YTTn (TTTG), SD 8.67
  activity: 17.4 % NHEJ

## AAUUUCUACUAUUGUAGAUNGCCAGAGCCGGGGUGUGCAGACGG / TCCCTCTTTAGCCAGAGCCGGGGTGTGCAGACGG / CCGTCTGCACACCCCGGCTCTGGCTAAAGAGGGA [MG31-1 guide VEGFA target9 ; VEGFA target9]
[1]; PAM YTTn (TTTA), SD 1.92
  activity: 6.72 % NHEJ

## AAUUUCUACUAUUGUAGAUNCCGAUCGUUACAGGAAAAUCUG / GTTCCCGATCGTTACAGGAAAATCTG / CAGATTTTCCTGTAACGATCGGGAAC [mAlb29-1-2 sgRNA ; mouse albumin intron 1 mAlb29-1-2 site]
[2]; PAM GTTC, Hepa1-6 RNP nucleofection, guide backbone inferred
  activity: 0 % indel

## AAUUUCUACUAUUGUAGAUNCGCACUAAGGAAAGUGCAAAGU / TTTGCGCACTAAGGAAAGTGCAAAGT / ACTTTGCACTTTCCTTAGTGCGCAAA [hAlb_g87 sgRNA ; human albumin intron 1 g87 site]
[2]; PAM TTTG, RNP nucleofection HepG2, guide backbone inferred
  activity: 97 % indel

## AAUUUCUACUAUUGUAGAUNUGAAGUCUUACAAGGUUAUCUUAU / TTTGTATTTGTGAAGTCTTACAAGGTTATCTTAT / ATAAGATAACCTTGTAAGACTTCACAAATACAAA [MG31-1 guide albumin target4 ; Albumin target4]
[1]; PAM YTTn (TTTG), SD 2.72
  activity: 7.05 % NHEJ
